Target: Anthrol reductase CbAR from Cercospora sp. JNU001 (Cercospora sp. JNU001)
Experiment: SEC; purified CbAR on gel filtration (Supplementary Fig. 1b, c); the column of the purification was Hiload 16/600 Superdex 200 pg in 25 mM Tris-HCl pH 8.0, 150 mM NaCl

stoichiometry N: 2
Substance: Anthrol reductase CbAR from Cercospora sp. JNU001 (enzyme)

From PMC9867772
